Experimental data as given in the supplement of paper PMC9170038.

What was measured:
MS2 coat protein [1] = assay: apparent KD of MS2 coat protein; higher = weaker reporter binding; details: Eterna round: R101
Protocol: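 RNA-MaP: designed FMN/MS2 RNA switches (84 nt design region) are transcribed on-chip within common flanks and titrated with SNAP-549-labelled MS2 coat protein (about 1-3000 nM) in 100 mM Tris pH 7.5, 80 mM KCl, 4 mM MgCl2, without or with 200 uM FMN. Median apparent KD per design; activation ratio = KD,OFF / KD,ON.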

MS2 coat protein [2] = assay: apparent KD of MS2 coat protein, switch ON state; designed switch direction (-1 OFF switch, 1 ON switch): 1; higher = weaker reporter binding; details: FMN input: 0 or 200 uM; Eterna round: R93 (includes R88 designs)
Procedure, shortened: (§1)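 For every design, apparent KD is the median of normalised binding-curve fits from its clusters. The RNA switches were transcribed on-chip from Illumina sequencing clusters and titrated with SNAP-549-labelled MS2 coat protein (twofold steps, 0.7 or 1.5 nM to 3 µM; 0.8–1.5 h to 10–20 min per step). Titrations used 100 mM Tris-HCl pH 7.5, 80 mM KCl, 4 mM MgCl2, without or with constant ligand.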

MS2 coat protein [3] = assay: apparent KD of MS2 coat protein, switch OFF state (with FMN for OFF switches, without FMN for ON switches); designed switch direction (-1 OFF switch, 1 ON switch): 1; higher = weaker reporter binding; details: FMN input: 0 or 200 uM; Eterna round: R93 (includes R88 designs)
Procedure, shortened: as §1

Sequence | apparent KD of MS2 coat protein (MS2 coat protein [1]; input ligand: FMN 200 uM) [nM] | apparent KD of MS2 coat protein (MS2 coat protein [1]; input ligand: none) [nM] | apparent KD of MS2 coat protein (MS2 coat protein [2]) [nM] | apparent KD of MS2 coat protein (MS2 coat protein [3]) [nM]
CGCGAACAGUUUUAAAAGAGGAUCACCCAUGUGGACUCAUGGUAGGAUAUCGGGAAGGAGGAAACCGAGAAGGGCUGGUGAGCC [salish99_SSNG3_019 #HINGE] (puzzle (switch architecture): Same State NG 3) | 18 | 37.5 | – | –
UUGAAUCGAAACAUGAGGAUCACCCAUGUGUUGUAAUUGACAUAGGAUAUGUAUAUACUUUUAUAAUAGAAGGAUGACGAUACU [S-state NG3 31] (puzzle (switch architecture): Same State NG 3) | 12 | 15.8 | – | –
CGCUAUGAUGGGUGUAAUAGAGCAUAGGAUAUGCUUGUACAUGAGGAUCACCCAUGUUAUAUUUUGCAGAAGGGUGCAUUUGCG [JR #DistanceFar #Hairpin #NP SLSSNG3 Sub072] (puzzle (switch architecture): Small Loop Same State NG 3) | 255 | 460 | – | –
AGUGUCAUCGAGAAGGCCUCAAAAUGAGGAUCACCCAUGUUGUAAUAUGGGAGGAUAUCGAUGAUACAGCUACGUUUCGUAGCA [salish99_InSLSSNG1_020 #HINGE] (puzzle (switch architecture): Inverted Small Loop Same State NG 1) | 58.9 | 98.3 | – | –
CCUGCACUUCAAGGAUAUCCAGUCGUUUCGACUGGAGAAGGUGAGGAUCACCCAUCUAGCCUGACGUUUGUCAGGCAUGCAGGU [#AddUracilToBrourdLoops 7 - Jieux - Exclusion NG1] (puzzle (switch architecture): Exclusion NG 1) | 81.7 | 84.3 | – | –
AAGUGAAAUCAGAAGGGCUCCAGCAAAGCUGGAGCAGGAUAUGAGGAUCACCCAUGUCACCUGACGGUCGAAACGACCGUCAGG [#SharedSequence - IExNG1: 6-2] (puzzle (switch architecture): Inverted Exclusion NG 1) | 521 | 56.9 | – | –
AGGAGAAAUGUAGGAUAUAUAUAUAUAUAUAGGCAAAGCGUAUAUAUAUAUAUAGAAGGACAUGAGGAUCACCCAUGUUUCCCU [#Lowering the energy 12] (puzzle (switch architecture): Small Loop Exclusion NG 1) | 9.42 | 10.2 | – | –
CUUACUUUGUAGAAGGGUGACAUGAGGAUCACCCAUGUGCGUCGCCUGAAAGACCAGGGUACGCCACAGGAUAUACAAAGUAAG [Titerexe] (puzzle (switch architecture): Inverted Same State NG 2) | 128 | 28.4 | – | –
GCAGCUAAUGCAGGAUAUCAGCACGUGUAGUGCUGAGAAGGGCACAUGAGGAUACUGACUGUGAUCAAUUAAUAUUAAUGCUGC [salish99#hingeEx3_55-58_004] (puzzle (switch architecture): Exclusion NG 1) | 9.19 | 63.5 | – | –
AAAAUGAUUUUAGGAUAUGACUCCGAAACGGAGUCAGAAGGAGGAUCACCCUUUCAAAGCUCAGCGUCGAAAGACGCUGAGCAA [#SharedSequence - ExNG1-20] (puzzle (switch architecture): Exclusion NG 1) | 1200 | 201 | – | –
AAAUGAUAUCAGAAGGCGUGGACGAAACGUCCACGAGGAUAUGAGGAUCACCCAUGUCAGGUCAGCCUGCAAAGCAGGCUGACC [#SharedSequence - IExNG1: 7-4] (puzzle (switch architecture): Inverted Exclusion NG 1) | 562 | 50.3 | – | –
GGGAGACAUGAGGAUCACCCAUGUGAGAAGAGGCGAGGAUAUCGAAAGAAAGAAGAGAAACGAGAAGGCGCGAGAC [salish99-SS1-061] | – | – | 30.4 | 45.1
AAAAGACAUGAGGAUCACCCAUGUAAAGACAUAGGAGGAUAUGUCGUGAAAAAAGACUUGGCAGAAGGCCUUUGUC [SS1 - 46] | – | – | 21 | 25.6
CGCAGGAAGAGAGAGGAUAUCCAAAGGAAAACAUGAGGAUCACCCAUGUAAAAGGUAGGAAAUUGGGAGAAGGCUCAAGAGAGAG [salish99-ss2-100] | – | – | 34.3 | 40.9
AAUUGACAUGAGGAUCACCCAUGUAGGAUUAUGGGAGGAUAUACAAAGACGAGAGUCAGAGUAGAAGGCCUAGGAA [salish99-ss1-146] | – | – | 25 | 82.1
AACAAUCUAUCUGAGGAUAUCAUUUCAAAGACAUGAGGAUCACCCAUGUCCAGGAAAACUGGAAAUGAGAAGGCAGAUAGAUUGA [SS2: 1106] | – | – | 11.7 | 9.31
UAGAGGAAGAGAGAGGAUAUCCAAAGGAAAACAUGAGGAUCACCCAUGUAAAAGGUAGGAAAUUGGGAGAAGGCUCAAGAGAGAG [salish99-ss2-062] | – | – | 30.9 | 30.3
AUAACACAUGAGGAUCACCCAUGUAGAUCCACGUCAGGAUAUGCAAAGAAAAUAAACAAAGCAGAAGGGACAAUAA [SS 1 Tesla 1] | – | – | 47.3 | 49.6
AAAAGACAUGAGGAUCACCCAUGUAAAAACGUAGGAGGAUAUGUCUGGAAAACAUGCUGGACAGAAGGCCUGUGUC [SS1 - 29] | – | – | 17.6 | 25.2
GAAAAACAUGAGGAUCACCCAUGUGACAACAUGGGAGGAUAUACGUGGACGAUAGUCAAAGUAGAAGGCCUAAAAG [Garnet 64] | – | – | 71.7 | 18.4
AUAAAACAUGAGGAUCACCCAUGUCCGACAAAUCAAGGAUAUGAGAGCCUAACCAGGCUGUUAGAAGGUGAAAGAU [Riteat] | – | – | 229 | 192
AUUCCAACUAGUCAGGAUAUCAGGCGUAAGACAUGAGGAUCACCCAUGUACUUAGUACAAGUAACUGAGAAGGGACAGGGUGUAA [JR_SS002_Sub408] | – | – | 20.3 | 25.3
AAAGACAUGGUGCAGGAUAUAUUAAUAGUCACAUGAGGAUCACCCAUGUUCAUAUAUAUGAACGAGUAGAAGGGCGAUGAAAAAA [SameState2 Malc#6] | – | – | 98 | 90.8
AGAAUAAAAACAGAGGAUAUCCAAAAGAAAACAUGAGGAUCACCCAUGUAAAAGAAAAUAAAAUGGGAGAAGGCUGAAAUAAAGA [Mat - Same State 2 - Eli mod - D97] | – | – | 14.9 | 33.2
AAGAGACAUGAGGAUCACCCAUGUAGGAUUAUGGGAGGAUAUACAAAGACGAGAGUCAGAGUAGAAGGCCUAGGAA [salish99-ss1-129(!)] | – | – | 24.5 | 65.1
AAAAUACAUGAGGAUCACCCAUGUCCGACAAAUCAAGGAUAUGAUAGCCAAACCAGGCUGUUAGAAGGUGAAAGAA [Esesrien] | – | – | 260 | 151
CGGAGACAUGAGGAUCACCCAUGUGAGAAGAGGCGAGGAUAUCGAAAGAAAGAAGAGAAACGAGAAGGCGCGAGCC [salish99-SS1-080(!)] | – | – | 32.1 | 31.4
AAAAAACAUGAGGAUCACCCAUGUAAAAAAAUGGGAGGAUAUAUGAAAAAAAAAAAAAAAAUAGAAGGCCUGAAAA [same state 11] | – | – | 399 | 64.2
